Experimental data: article PMC3568127

Biological target: NRP1 (neuropilin 1) expressed from an adenovirus on DU145 cells (UniProt O14786)
Test: cell based binding displacement assay (biotinylated ligand, streptavidin-HRP, A450); DU145 cells infected with Ad.NRP1 in 96-well plates; various concentrations of competitor then 1 nM bt-VEGF-A165; binding medium with or without 0.1% BSA; 2 h at room temperature; apparent affinity judged by IC50

Sequence of NRP1 (neuropilin 1) expressed from an adenovirus on DU145 cells (O14786 22-923): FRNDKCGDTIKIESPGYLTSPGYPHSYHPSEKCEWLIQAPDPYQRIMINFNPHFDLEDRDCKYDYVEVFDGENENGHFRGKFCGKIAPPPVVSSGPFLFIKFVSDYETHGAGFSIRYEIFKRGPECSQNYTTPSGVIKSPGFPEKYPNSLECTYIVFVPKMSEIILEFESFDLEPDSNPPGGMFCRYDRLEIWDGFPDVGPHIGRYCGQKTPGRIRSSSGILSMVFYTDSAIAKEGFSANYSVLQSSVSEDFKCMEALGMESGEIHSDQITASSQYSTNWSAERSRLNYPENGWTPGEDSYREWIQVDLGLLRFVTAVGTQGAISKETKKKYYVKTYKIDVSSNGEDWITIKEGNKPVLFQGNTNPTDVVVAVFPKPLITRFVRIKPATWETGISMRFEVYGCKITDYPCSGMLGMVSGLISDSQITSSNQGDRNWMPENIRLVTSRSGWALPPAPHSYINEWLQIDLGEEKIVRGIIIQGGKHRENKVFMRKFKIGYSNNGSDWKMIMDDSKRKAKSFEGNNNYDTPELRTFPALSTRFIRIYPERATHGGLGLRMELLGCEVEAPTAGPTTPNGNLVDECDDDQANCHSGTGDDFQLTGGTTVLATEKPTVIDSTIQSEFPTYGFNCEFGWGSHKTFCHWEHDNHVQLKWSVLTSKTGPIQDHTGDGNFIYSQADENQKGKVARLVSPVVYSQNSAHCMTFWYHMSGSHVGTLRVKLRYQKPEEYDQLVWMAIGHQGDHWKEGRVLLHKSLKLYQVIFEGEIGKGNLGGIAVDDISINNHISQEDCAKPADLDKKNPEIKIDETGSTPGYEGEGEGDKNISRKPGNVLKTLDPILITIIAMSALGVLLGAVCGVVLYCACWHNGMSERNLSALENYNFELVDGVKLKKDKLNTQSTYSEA

IC50: 100 to 200 nM
Substance: VEGF-A165-HBD (the forms of the cell based assay: with and without the His6-tag)
